What is called Kd is the concentration at which binding is half-saturated.

Data on two molecules can be found in PMC8216282, “Structural basis for the dynamics of human methionyl-tRNA synthetase in multi-tRNA synthetase complexes” (Nucleic Acids Research, 2021).

The target of data set [1] is T1, MRS221-900 (methionyl-tRNA synthetase without N-terminal GST domain) (human, UniProt P56192 221-900).
T1 sequence: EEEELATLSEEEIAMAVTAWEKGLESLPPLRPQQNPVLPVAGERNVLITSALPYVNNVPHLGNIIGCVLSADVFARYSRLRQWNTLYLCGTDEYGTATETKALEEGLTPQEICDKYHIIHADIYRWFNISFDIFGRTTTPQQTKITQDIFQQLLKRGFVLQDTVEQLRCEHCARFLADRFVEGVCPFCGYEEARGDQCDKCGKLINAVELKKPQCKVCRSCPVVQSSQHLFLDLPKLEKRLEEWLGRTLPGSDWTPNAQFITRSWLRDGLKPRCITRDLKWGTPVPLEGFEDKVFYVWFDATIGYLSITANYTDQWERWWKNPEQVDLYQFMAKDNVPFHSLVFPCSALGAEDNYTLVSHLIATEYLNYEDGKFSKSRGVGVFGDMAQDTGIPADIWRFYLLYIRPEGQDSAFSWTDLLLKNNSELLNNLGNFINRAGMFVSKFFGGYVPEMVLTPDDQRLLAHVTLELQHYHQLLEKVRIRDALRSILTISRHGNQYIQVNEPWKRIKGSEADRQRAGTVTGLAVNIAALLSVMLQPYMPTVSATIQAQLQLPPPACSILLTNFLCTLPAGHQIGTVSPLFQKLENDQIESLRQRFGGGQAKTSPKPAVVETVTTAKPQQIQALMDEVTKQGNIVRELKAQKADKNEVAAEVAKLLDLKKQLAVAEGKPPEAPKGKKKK
In words: pull-down (Ni-NTA, fluorescence); almost 2-fold; MST: PBS, 1-100 uM protein, 80 nM 6-FAM-RNA, temperature not stated; pull-down: 50 mM Tris-HCl pH 7.5, 150 mM NaCl, Ni-NTA (yeast total tRNA pool not listed). The settings on record: protein: recombinant, tags: hexa-His.

For data set [2], the target named is T2, MRS full-length (in MRS-AIMP3 complex);AIMP3 (in MRS-AIMP3 complex) (human;human?, UniProt P56192;O43324 1-900;1-174, |).
T2 sequence 1: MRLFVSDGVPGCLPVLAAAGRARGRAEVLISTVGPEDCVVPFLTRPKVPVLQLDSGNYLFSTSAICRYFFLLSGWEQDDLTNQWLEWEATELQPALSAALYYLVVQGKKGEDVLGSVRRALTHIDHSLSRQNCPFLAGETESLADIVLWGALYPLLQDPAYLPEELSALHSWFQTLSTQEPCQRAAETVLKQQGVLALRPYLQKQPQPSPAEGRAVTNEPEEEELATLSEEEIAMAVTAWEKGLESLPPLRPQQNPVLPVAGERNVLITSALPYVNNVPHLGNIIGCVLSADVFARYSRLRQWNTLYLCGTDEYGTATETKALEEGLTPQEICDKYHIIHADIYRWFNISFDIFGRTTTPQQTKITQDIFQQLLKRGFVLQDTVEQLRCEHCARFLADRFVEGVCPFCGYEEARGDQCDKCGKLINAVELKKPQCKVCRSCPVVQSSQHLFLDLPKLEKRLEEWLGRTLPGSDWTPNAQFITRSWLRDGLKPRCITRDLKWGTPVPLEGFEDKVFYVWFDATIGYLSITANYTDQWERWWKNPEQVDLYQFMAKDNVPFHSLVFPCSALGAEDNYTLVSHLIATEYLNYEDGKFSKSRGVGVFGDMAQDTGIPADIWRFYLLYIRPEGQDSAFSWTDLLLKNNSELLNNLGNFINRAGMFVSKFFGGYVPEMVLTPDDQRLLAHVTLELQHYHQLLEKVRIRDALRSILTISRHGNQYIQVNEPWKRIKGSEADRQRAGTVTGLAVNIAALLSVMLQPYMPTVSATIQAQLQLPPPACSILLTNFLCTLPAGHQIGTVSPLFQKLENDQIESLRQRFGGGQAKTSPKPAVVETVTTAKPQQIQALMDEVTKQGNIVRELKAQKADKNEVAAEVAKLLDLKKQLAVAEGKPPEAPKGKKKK
T2 sequence 2: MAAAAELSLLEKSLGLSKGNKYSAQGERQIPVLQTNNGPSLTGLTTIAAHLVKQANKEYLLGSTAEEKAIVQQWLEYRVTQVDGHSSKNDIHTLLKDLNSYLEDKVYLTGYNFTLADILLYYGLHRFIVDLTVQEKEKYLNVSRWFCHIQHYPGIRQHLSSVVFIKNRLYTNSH
Briefly: MST; labeled RNA (80 nM); MST: PBS, 1-100 uM protein, 80 nM 6-FAM-RNA, temperature not stated; pull-down: 50 mM Tris-HCl pH 7.5, 150 mM NaCl, Ni-NTA (yeast total tRNA pool not listed). The settings on record: protein: recombinant;recombinant; copies: 1;1; tRNA fold.

In data set [3] the target is T1, MRS221-900 (methionyl-tRNA synthetase …). The description is as above. The settings on record: protein: recombinant; tags: hexa-His; tRNA fold.
Data set [4] concerns the target T2, MRS full-length (in MRS-AIMP3 …). Briefly: MST; protein labeled with Red-tris-NTA, unlabeled RNA; MST: PBS, 1-100 uM protein, 80 nM 6-FAM-RNA, temperature not stated; pull-down: 50 mM Tris-HCl pH 7.5, 150 mM NaCl, Ni-NTA (yeast total tRNA pool not listed). The settings on record: protein: recombinant;recombinant; copies: 1;1; label: none (Results); Methods text says 6-FAM-RNA for this assay too; tRNA fold.

The target in data set [5] is T1, MRS221-900 (methionyl-tRNA synthetase …). Described as above. Particulars: protein: recombinant; tags: hexa-His; label: none (Results); Methods text says 6-FAM-RNA for this assay too; tRNA fold.

B1: 6-FAM synthetic elongator tRNAMet (structured_RNA)
RNA: GCCUCGUUAGCGCAGUAGGUAGCGCGUCAGUCUCAUAAUCUGAAGGUCGUGAGUUCGAUCCUCACACGGGGCA
modifications: none stated (synthetic RNA)
With B1, the binding signal in data set [1] was ~2 fold vs MRS-AIMP3 complex. The values for the Kd in data set [2] and in data set [3] were 31.6 µM and 12.8 µM, respectively.

B2: unlabeled synthetic elongator tRNAMet (structured_RNA)
RNA: GCCUCGUUAGCGCAGUAGGUAGCGCGUCAGUCUCAUAAUCUGAAGGUCGUGAGUUCGAUCCUCACACGGGGCA
modifications: none stated (synthetic RNA)
Consider B2, for which the Kd in data set [4] amounted to 60.2 µM; in data set [5], 21.6 µM.
